# Tested on: MS2 coat protein
# Assay: apparent KD of MS2 coat protein; higher = weaker reporter binding
# Details: Eterna round: R107
# Summary of the method: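 Normalised binding curves from single clusters were fitted, and the median fit for each design is given as apparent KD. The clusters held designed RNA switches transcribed on-chip from Illumina sequencing clusters. These were titrated with SNAP-549-labelled MS2 coat protein (twofold steps from 0.7 or 1.5 nM to 3 µM, 0.8–1.5 h to 10–20 min per step) in 100 mM Tris-HCl pH 7.5, 80 mM KCl, 4 mM MgCl2, without or with constant ligand.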
# [1] = input ligand: theophylline 20 uM
# [2] = input ligand: theophylline 2 mM
# [3] = input ligand: tryptophan 2.4 mM
Sequence,apparent KD of MS2 coat protein (input ligand: arginine 13.2 mM),apparent KD of MS2 coat protein (input ligand: none),apparent KD of MS2 coat protein [1],apparent KD of MS2 coat protein [2],apparent KD of MS2 coat protein [3]
ACGUAAAGCAGAAGGAGCGUCUUAAUUCUACAUGAGGAUCACCCAUGUUUACAUUGAAUAUGACAGGUAGGUCGCUGAAGUACGA [JR_SSArginiB_Sub001],23.5 nM,33.9 nM,27.5 nM,30.8 nM,23.8 nM
ACGUAAUGCAGAAGGAGCGUCAUUCUCUUACAUGAGGAUCACCCAUGUUACAUGGUUUUAUGACAGGUAGGUCGCUGAAGUACGA [JR_SSArginiB_Sub004],71.4 nM,105 nM,122 nM,138 nM,86.6 nM
ACGUAAUGCAGAAGGAGCGUCGAUCUCAUACAUGAGGAUCACCCAUGUUACAUGGUUGGACGACAGGUAGGUCGCUGAAGUACGA [#06 Exclusion - Arginine B],24.2 nM,20.6 nM,35.5 nM,27.4 nM,21.4 nM
ACGUCACGUUUACUCGUGGUUUCGAUCGAUACCAGUAGCGAGAGUUACCCUUGGCAGCGACAUGAGGAUCACCCAUGUGCGAAGA [XTheo A #26],12.2 nM,–,14 nM,–,11.7 nM
ACGUCACGUUUACUCGUGGUUUCGUUCGAUACCAGUAGCGAGAGUUACCCUUGGCAGCGACAUGAGGAUCACCCAUGUACGAAGA [XTheo A #24],12.7 nM,–,15 nM,–,12.9 nM
ACGUCUCGUUUACUCGUGGGUUAGCUCGAUACCAGUAUUCAAACUUACCCUUGGCAGCGACAUGAGGAUCACCCAUGUGCGAAGA [XTheo A #23],17.3 nM,–,20.5 nM,–,17.5 nM
ACGUGGAAAAUUUGUGGUGCUGCCUCAGGCCGAGGACCGGUACGGCCGCCACUCGUACAUGAGGAUCACCCAUGUCGAGUCACUG [Isanso],19.2 nM,–,48 nM,47.4 nM,–
ACUAGGCUCGGAAACGAGCCUAGGACAGAAGGAGCGUGGAUUAACACAGGUAGGUCGCUGACAUGAGGAUCACCCAUGUAUUAUU [SSAA #2],24.5 nM,24.9 nM,38.6 nM,25.3 nM,28.9 nM
ACUAGUUGUGCAGAUACCAGACAUGAGGAUCACCCAUGUUUGGGAUCUUCGGAUCUUCCUGUCCCUUGGCAGCUGUACAUCUAGA [Omei Theo B Exc v3],62.6 nM,–,178 nM,–,125 nM
ACUAGUUGUGCAGAUACCAGACAUGAGGAUCACCCAUGUUUGGGAUGUUCGCAUCUUCCUGUCCCUUGGCAGCUGUACAUCUAGA [Omei Theo B Exc v4],60.9 nM,–,145 nM,–,86.2 nM
ACUAGUUGUGCAGAUACCAGGCACGAGGAUCACCCGUGUUUGGGAUGUUCGCAUCUUCCUGUCCCUUGGCAGCUGUACAUCUAGA [Omei Theo B Exc v9],29.6 nM,30.9 nM,54.3 nM,155 nM,37.4 nM
ACUCGGUAUGUCUAAUACCGAGAGUAUGAUACCAGUAUGGUGACAUACCCUUGGCAGCAUGGGACAUGAGGAUCACCCAUGUGUU [SSThA NP+V+V2 #10 Same Structure],119 nM,–,465 nM,–,588 nM
ACUGACUUUACGGCCGCCACUCAUUGGCACGUGUCAUGUCAACAUGAGGAUCACCCAUGUAUGAUGAGGACCGGGUAAGGGCUGC [theeternabot_exclusion_MS2_Trp_B_2],8.71 nM,–,13 nM,11 nM,–
ACUUCAUGAGGUGAUACCAGCCAAUGACAUGAGGACAUGAGGAUCACCCAUGUUUAUGUAGGCCCUUGGCAGCAUUGUAACAUGA [Same State Theophylline B 4],101 nM,–,126 nM,–,28.4 nM
AGAACUUUGGUGGAUACCAGCUUCUGGCCAUCCUUCAAAUACAUGAGGAUCACCCAUGUUAGCCCUUGGCAGCCAACAUAGACUG [theeternabot_exclusion_MS2_Theo_B_44],21.7 nM,–,33 nM,–,21.6 nM
AGAAUAACACAUGAGGAUCACCCAUGUGAUACCAGCUAGGAAACUAGCCCUUGGCAGCACAUAAUCCUCAUGAAUGUGCUGAAUA [(M1)-(M2)-(T1)-(T2)-(M)'-(T)'_Design3_2/19/17],37.3 nM,–,121 nM,–,59.7 nM
AGAAUAACAUGAGCAAAGCUCAUGUGCGAAGGAGCGGCGGAAACGCCAGGUAGGUCGCGCACAUGAGCAUCAGCCAUGUGUACCA [Omei Arginine B SS A v5],11.5 nM,30.7 nM,201 nM,65.8 nM,58.9 nM

# Reference: the supplement of paper PMC9170038
